Assay results from patent US6395548, “Methods of modulating of angiogenesis” (President and Fellows of Harvard College).

Key:
EPAS1/ARNT4 heterodimer = EPAS1/ARNT4 heterodimer (Homo sapiens, UniProt Q99814;Q8WYA1-5 Q99814:1-870,Q8WYA1-5:1-602); assay: EMSA; probe described as HIF-1 site / hypoxia responsive element of VEGF
HIF-1alpha/ARNT4 = HIF-1alpha/ARNT4 (Homo sapiens, UniProt Q16665;Q8WYA1-5 Q16665:1-826,Q8WYA1-5:1-602); assay: EMSA; HIF-1 did not form dimers with ARNT4 and bind the site
Sequence of HIF-1alpha/ARNT4 (Q16665 whole entry, chain 1 of 2): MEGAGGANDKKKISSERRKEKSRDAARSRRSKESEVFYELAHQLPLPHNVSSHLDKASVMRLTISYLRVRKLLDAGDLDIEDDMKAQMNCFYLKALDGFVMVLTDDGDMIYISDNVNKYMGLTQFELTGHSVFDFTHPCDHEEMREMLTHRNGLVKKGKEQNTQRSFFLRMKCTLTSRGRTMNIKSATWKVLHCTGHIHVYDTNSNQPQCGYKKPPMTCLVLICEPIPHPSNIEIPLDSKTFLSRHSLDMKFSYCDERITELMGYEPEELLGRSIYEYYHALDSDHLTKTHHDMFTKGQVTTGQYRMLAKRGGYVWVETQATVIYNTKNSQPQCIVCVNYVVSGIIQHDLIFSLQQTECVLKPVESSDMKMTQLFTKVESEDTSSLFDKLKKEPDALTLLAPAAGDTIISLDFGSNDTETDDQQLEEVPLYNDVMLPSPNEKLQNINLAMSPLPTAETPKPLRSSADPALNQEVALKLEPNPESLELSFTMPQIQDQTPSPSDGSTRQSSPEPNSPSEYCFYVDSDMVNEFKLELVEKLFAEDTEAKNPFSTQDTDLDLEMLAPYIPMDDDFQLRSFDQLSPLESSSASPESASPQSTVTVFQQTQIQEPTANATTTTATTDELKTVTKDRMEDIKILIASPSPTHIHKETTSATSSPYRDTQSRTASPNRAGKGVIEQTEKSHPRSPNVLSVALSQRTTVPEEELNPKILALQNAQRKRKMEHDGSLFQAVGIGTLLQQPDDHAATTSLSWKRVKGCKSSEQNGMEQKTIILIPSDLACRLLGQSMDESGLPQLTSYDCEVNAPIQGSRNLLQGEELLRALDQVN
Sequence of HIF-1alpha/ARNT4 (Q8WYA1 other isoform, or with tags, fused parts or gaps, chain 2 of 2): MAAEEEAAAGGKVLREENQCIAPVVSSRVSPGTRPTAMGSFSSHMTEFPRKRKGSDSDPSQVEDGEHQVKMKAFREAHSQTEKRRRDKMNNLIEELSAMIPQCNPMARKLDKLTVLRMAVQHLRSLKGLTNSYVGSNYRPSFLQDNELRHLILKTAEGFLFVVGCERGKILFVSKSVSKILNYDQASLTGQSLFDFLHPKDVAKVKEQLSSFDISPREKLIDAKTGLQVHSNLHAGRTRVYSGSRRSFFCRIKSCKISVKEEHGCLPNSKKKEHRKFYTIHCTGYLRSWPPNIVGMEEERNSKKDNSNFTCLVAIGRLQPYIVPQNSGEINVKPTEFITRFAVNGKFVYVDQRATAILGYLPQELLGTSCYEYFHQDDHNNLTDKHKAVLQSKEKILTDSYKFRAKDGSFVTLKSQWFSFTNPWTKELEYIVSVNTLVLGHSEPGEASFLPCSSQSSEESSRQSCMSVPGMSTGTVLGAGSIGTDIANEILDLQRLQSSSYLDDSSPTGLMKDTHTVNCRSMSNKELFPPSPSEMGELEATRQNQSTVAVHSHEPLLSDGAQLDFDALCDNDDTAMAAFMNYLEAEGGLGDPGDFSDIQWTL

Sequence of EPAS1/ARNT4 heterodimer (Q99814 whole entry, chain 1 of 2): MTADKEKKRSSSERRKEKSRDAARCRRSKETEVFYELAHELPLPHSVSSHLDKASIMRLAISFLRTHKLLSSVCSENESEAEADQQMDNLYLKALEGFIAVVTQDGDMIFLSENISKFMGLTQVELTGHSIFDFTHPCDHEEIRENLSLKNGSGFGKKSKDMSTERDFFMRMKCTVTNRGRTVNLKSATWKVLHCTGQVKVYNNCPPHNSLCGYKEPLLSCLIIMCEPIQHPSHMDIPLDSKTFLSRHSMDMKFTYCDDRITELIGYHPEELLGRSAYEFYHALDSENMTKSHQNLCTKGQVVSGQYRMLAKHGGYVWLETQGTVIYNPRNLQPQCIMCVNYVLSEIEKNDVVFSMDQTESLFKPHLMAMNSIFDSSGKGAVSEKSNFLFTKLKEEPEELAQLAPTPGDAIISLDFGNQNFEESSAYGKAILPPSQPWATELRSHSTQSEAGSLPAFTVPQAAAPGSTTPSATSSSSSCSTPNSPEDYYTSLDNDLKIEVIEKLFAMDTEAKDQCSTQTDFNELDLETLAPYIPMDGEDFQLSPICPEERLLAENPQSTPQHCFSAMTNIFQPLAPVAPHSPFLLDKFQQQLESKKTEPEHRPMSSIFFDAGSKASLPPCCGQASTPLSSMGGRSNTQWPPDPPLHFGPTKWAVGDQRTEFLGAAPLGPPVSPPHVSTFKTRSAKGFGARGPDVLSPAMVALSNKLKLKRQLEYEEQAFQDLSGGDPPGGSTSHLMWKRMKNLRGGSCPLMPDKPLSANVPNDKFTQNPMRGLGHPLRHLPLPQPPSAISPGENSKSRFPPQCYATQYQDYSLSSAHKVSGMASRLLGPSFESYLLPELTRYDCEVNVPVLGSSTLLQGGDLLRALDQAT
Sequence of EPAS1/ARNT4 heterodimer (Q8WYA1 other isoform, or with tags, fused parts or gaps, chain 2 of 2): as the sequence (Q8WYA1 other isoform, or with tags, fused parts or gaps, chain 2 of 2) above

B1: VEGF promoter HIF-1 binding site / hypoxia responsive element (dsDNA)
DNA 1: GCCCTACGTGCTGTCTCA
DNA 2: TGAGACAGCACGTAGGGC
binding result (EPAS1/ARNT4 heterodimer): binds
binding result (HIF-1alpha/ARNT4): no binding
